The text below walks through data of the DeepSol protein solubility set.

The data set in a line: soluble on expression in E. coli; label from the status in PepcDB or PDB records.
Consider “MGHHHHHHSHPPERQINLSNIRAGNLARRAAATQPDAKDTPDEPWAFPAREFLRKKLIGKEVCFTIENKTPQGREYGMIYLGKDTNGENIAESLVAEGLATRREGMRANNPE”, for which the “soluble on expression in E. coli” value is reported as “not soluble”.
Next, “MGHHHHHHSHRKRPLLAPLCNGLINSYEDKSNDFVCPICFDMIEEAYMTKCGHSFCYKCIHQSLEDNNRCPKCNYVVDNIDHLYPNFLVNELILKQKQRFEEKRFKLDHSVSSTNGHRWQIFQDWLGTDQDNLDLANVNLMLELLVQKKKQLEAESHAAQLQILMEFLKVARRNKREQLEQIQKELSVLEEDIKRVEEMSGLYSPVSED”: “not soluble”; “MGHHHHHHSHRNLDSRTFITIGDRNFEVEADDLVTISELGRGAYGVVEKVRHAQSGTIMAVKRIRATVNSQEQKRLLMDLDINMRTVDCFYTVTFYGALFREGDVWICMELMDTSLDKFYRKVLDKNMTIPEDILGEIAVSIVRALEHLHSKLSVIHRDVKPSNVLINKEGHVKMCDFGISGYLVDSVAKTMDAGCKPYMAPERINPELNQKGYNVKSDVWSLGITMIEMAILRFPYESWGTPFQQLKQVVEEPSPQLPADRFSPEFVDFTAQCLRKNPAERMSYLELMEHPFF”: “soluble”; “MGHHHHHHSHRRQHPLPLLLLRHLRPQAHREPPQVYTSSQPLRVGYYETDNYTMPSPAMRRAVLETKQSLEAAGHTLVPFLPSNIPHALETLSTGGLFSDGGHTFLQNFKGDFVDPCLGDLVSILKLPQWLKGLLAFLVKPLLPRLSAFLSNMKSRCTAKP”: “not soluble”.
Next, “MGHHHHHHSHVEIIQKVVVKQILTEASKQELIEYYTEQKRQIEQECDQLHFEQKKMERKSKFQPERVADYFTHELDIRREKKKLIQFQMEQLEVLELGSEIREREMETIIDVQVGDKWDKSIFDKTIVVKDGIIVEIR”: “soluble”.
Turning to “MGHHHHHHSHVLPIYAYGHAVGKSVTGGYVYRGCESPNLNGLYIFGDFMSGRLMALQEDRKNKKWKKQDLCLGSTTSCAFPGLISTHSKFIISFAEDEAGELYFLATSYPSAYAPRGSIYKFVDPSRRAPPGKCKYKPVPVRTKSKRIPFRPLAKTVLDLLKEQSEKAARKSSSATLASGPAQGLSEKGSSKKLASPTSSKNTLRGPGTKKKARVGPHVRQGKRRKSLKSHSGRMRPSAEQKRAGRSLP”, the “soluble on expression in E. coli” value was “not soluble”.
For the sequence “MGHVVKVALLGLGEVGEKFAEHFLEKIQEDRANVEIVAVAHRDLESPVALGFVHSKVPVFKDAMEVVTLGAKVDIIFDLTGDPEVRRKLRIALQESHNQHTVIAPEVVAHLLWNFFGEGELPRSNRTGY”, the “soluble on expression in E. coli” value is “soluble”.
Next, “MGISDNDVQKQLRHMMAFIEQEANEKAEEIDAKAEEEFNIEKGRLVQQQRQKIMEFFEKKEKQVELQRKIQASNSLNAGRLRCLKAREDHIGAVLDEARSNLSRISGDAARYPAILKGLVMQGLLQLLEKEVVLRCREKDLRLVEQLLPECLDGLQKEWGSTTKVVLDKQNFLPSESAGGVELSARAGKIKVSSTLESRLELIANQIVPQVRTALFGPNPNRSFFD”: “not soluble”.
Next, “MGISRDSWHKRYKTGATQPVPHKKRKFELGRPAANTKIGAHRVRLVRTRGGNEKYRALRLDSGNFSWASEQTTRKTRIVDTMYNATNNELVRTKTLVKGAIISVDAAPFRQWYEAHYALPLARKKNAKLSEEDNAILNKKRSHHTMKKYTERQKTAAVDALLIEQFNTGRLLARISSSPGQVGQANGYILEGKELDFYLRKIRAKKAK”: “not soluble”.
Turning to “MGITREELRALVREVVREAVGSLNSSPAQASNQASKPAPPAPPPRATVADQMGLEPTGPRAVEGRNRTETVRLTDDKDLDTFVRKLLRLFESPKTRADLKAGRLRFRLAPGSGAAMANGQAQVTHRIDSGAVTERHIADLAGGTLVLGPRAVLTPLAREKARTLGIVIEKERR”, the “soluble on expression in E. coli” value was “not soluble”.
Next, “MGKATYTVTVTNNSNGVSVDYETETPMTLLVPEVAAEVIKDLVNTVRSYDTENEHDVCGW”: “soluble”.
Next, “MGKEVMGKKENEMAQEKERPAGSQSLFRGLMLIEILSNYPNGCPLAHLSELAGLNKSTVHRLLQGLQSCGYVTTAPAAGSYRLTTKFIAVGQKALSSLNIIHIAAPHLEALNIATGETINFSSREDDHAILIYKLEPTTGMLRTRAYIGQHMPLYCSAMGKIYMAFGHPDYVKSYWESHQHEIQPLTRNTITELPAMFDELAHIRESGAAMDREENELGVSCIAVPVFDIHGRVPYAVSISLSTSRLKQVGEKNLLKPLRETAQAISNELGFTVRDDLGAIT”: “soluble”.
Next, “MGKIFCIVQARMGSERLQGKVIKPILKKPMVIYTLDRLKKSKYIDKIVLATSSMERETPLVESCEEYGYDVFKGSEANVLKRYEQAAEKYGANIEDAVIRVTGDCPLIDPIIVDNVVTKFLSSDYDYVRLDVPNTFVRGFDVEIFSMKALKTVNSLINGGKIPKEEADMYKEHVTLYMYKHPNEFKVGYVKGDEFYSKDYRLCVDTKEDFELVKNIYEHFNDEFVSSKNVINYLDRNSEIAQINNDIKQKEVLEHHHHHH”: “soluble”.
With “MGKKIITISREYGSGGRQVGLTVAKKLGMEFYDKELIDAAAKEIGFPTEMIADREQRLTNSLLYNFAMGTLYGIAYPREPKVSELPLTEQIYQAQKKAIEEAAKRGSCIFVGRCADYILKSRPDVLRVFIYADRDIRKRRAIEEYGEIEEYIDEFMYQTDKRRRIHYENYTNQKWGSRENYDLMLNSGDLGLDKCVELLCEAVK”, the “soluble on expression in E. coli” value was “not soluble”.
For “MGKRMVVVGGVAGGASAAAKAKRENPELEVVVYEKSGWVSYGACGLPYVLSGEIPRLERLVARTPEEFRKQGVLVRTRHEVVDVDYELRTLTVHDHAEGRTFQDRFDHLVLATGARPSLPPIPGTEQEGVYTLRTMEDGERLLKALPQARRAAILGAGYIGLEAAEAFRKRGLQVTLLEAKDRPLPHWDPEVGALLKEELERHGVEVWTGVKVEAFRGMGRVEAVETSEGVVPADLVLLATGIRPNTELAQAMGVALGPTGAIATDERMRTNLEGVYAAGDVAESFHRVLKRPYWLPLGDVANKHGRTAGSVIAGREARFLGVVGTAIFKAFDLAVATTGLSLEGALKEGFWAKKVFIQSRDGAHYYPGSGPLWVELVYEEGTGRLLGGAVVARGHGALRIDVLAALLHREGSVEDLLALDLAYAPPFSPVWDPLLIAAQQAR”, the “soluble on expression in E. coli” value is listed as “soluble”.
With “MGKTLYEKVYDAHVAVAAEGETPILYIDRHLVHEVTSPQAFDGLREKGRKVRQVSKTFATMDHNVSTTTKDINASGEMARIQMETLSKNCEEFGVTLYDLNHKYQGIVHVMGPELGITLPGMTIVCGDSHTATHGAFGSLAFGIGTSEVEHVLATQTLKQARAKT”, the “soluble on expression in E. coli” value is “not soluble”.
Consider “MGKWRYLAIGVCLMTTSGVTFADSLDAQRQRYQQVKLAWDSNQMDTVAQLMPTLRDYPLYPYLEYRQLTQDLSQVSTAQVKDFLNRHPTLPPAKSLPSRFVNELARREDWRGLLTFSPTAPKPVAARCNYYYAKWATGEQSVAWEGASEIWLNGQSLPGSCDKLFSVWQQAGHQTPLATLARMKLALKEGNASLVSYLLKQLPADYQTMGTALAKLQSDPSSVESFARTVGPTDFTRSATTIAFTRLARQDVENARLMIPSLVRLQKMSDSEKLELEEAVAWRLMGNDATYEQAKWRDQVALRSHSTSLLERRIRMSLGSGDRQGLATWLARLPAEAQDKDEWRYWRASLLLEQGKKAEGEAILRSLTKERGFYPMVAAQKLNIPYPIKVQVAAKPDVSLAQRPEIARVRELMYWNMDNQARAEWSYLVASRSKAEQEALARYAFDQKWADLSVQATIVAKLWDHLEERFPMAWTKEFRQFTEDKGITPSYAMAIARQESAWNPKAQSPVGATGLMQVMPRTAEHTVKRNNIAGYLNSSQLLDPVTNIEIGTYYLEEVYQQFGRNRILSSAAYNAGPSRVNTWLGNSGGQVDAVAFIESIPFSETRGYVKNVLAYDAFYRHFMNRPAKVLSDAEWQRRY”, for which the “soluble on expression in E. coli” value is “soluble”.
Regarding “MGLIEDKALVEAALFVAGRPLSLKELSKALGIKSLDYLEKLIELIASEYAERKSAIEIVKVAGDKWVMQVKQEYSQRVIPLMPKPELSTGELKTLALIAYLQPVEQSKIVKLRGSQAYEHIRKLLEMGLIYAEPYERTRLLGTTEKFAELYGFPENDPMLIKETFKKVIHAEYSDLMKKIEESEKKKE”, the “soluble on expression in E. coli” value is “soluble”.
Next, “MGLKDWIEAPAAAVVPAKRSKLNWLRGAAARLTTPLLPDDYLHLANPLWSARELRGQIVEVRAETADSATIVIKPGWGFDFDYEPGQYIGIGLHIDGRWHWRSYSLTSPPNWDDKLISIAVKAMPEGFLSSHLVNGVPSGTIVRLATPTGNFALPDPPPERILFLTAGSGITPVMAMLRTMNRRGQLPDVFHVHSAPTDADVMFADELTQLHEEHDDFRCKIQLTRSQGKFALSSLDEVCPDWRERQTWACGPLPMLDEIETLWRDEGIENKLHLERFAVSRADTSGEGGTVTFAKADKTVSVDGATTLLEAGEQVGALMPFGCRMGICQTCVVPILAGHAIDLRSGKQHAEGDRVQTCISAAAGDCTLDA”: “not soluble”.
Next, “MGLSPSAPAVAVQASNASASPPSGCPMHEGKMKGCPVNTEPSGPTCEKKTYSVPAHQERAYEYVECPIRGTAAENKENLDPSNLMPPPNQTPAPDQPFALSTVREESSIPRADSEKKWVYPSEQMFWNAMLKKGWKWKDEDISQKDMYNIIRIHNQNNEQAWKEILKWEALHAAECPCGPSLIRFGGKAKEYSPRARIRSWMGYELPFDRHDWIINRCGTEVRYVIDYYDGGEVNKDYQFTILDVRPALDSLSAVWDRMKVAWWRWTS”: “soluble”; “MGLVGLHSGTIDMEFIGVEDHGDEEGKQIAVSVISSGKNADKTEDPDSLIFTGFGGTDMYHGQPCNQKLERLNIPLEAAFRKKSIVRVVRCMKDEKRTNGNIYIYDGTYMITNRWEEEGQNGFIVFKFKLVREPDQKPAFGIWKSIQNWRNGLSIRPGLILEDLSNGAENLKVCLVNEVDKENGPALFRYVTSLIHEVINNIPSMVDRCACGRRSCGSKHVFREKLSVSSSLVISAKKSGNVARFMNHSCSPNVFWQSIAREQNGLWCLYIGFFAMKHIPPLTELRYDYGKSRGGGKKMCLCRTKKCCGSFG”: “soluble”; “MGLVTDEVRARAEKYTGDEICREKTKEFLKEVSMPNGLLPLKDIEEVGYDRETGIVWLKQKKSITHKFEAIGKLVSYATEVIAQVEVGKIKKLTGVKAKELLIWVTLNELVLEQPTSSGKINFRTPTGLSRTFPVSAFVVPEVEKPATEKNNGTTEVKEAVAVTDA”: “not soluble”.
Next, “MGMELILREWMGKEKDYSISYSTYMNLVLYTEGHGYYMKEREKIGRQGDFFTSSNVSSVFAKTFAKLFIRLVENGEVASNICEVGGGTGKFAYDVLQEWKQLSPNTFINLNYSMIEVSPFHRKLQQEQLGSFSNVSYYTSYSEMGDSFEGILFSNELFDAFPVEVIEKRNGILYEVRITYTEEGNLSEVCRPLNKRIGRYLLKYNIHIAEGQRFEVPIVMEEYIKEISKWFQKGICITVDYGYTKEEWMHPAHREGSLRGYYQHKLMRNPLAHPGEMDLTTHVHWDELKEMFSMQGMSAVWHKKQSEFLLAAGILEQLTSHQDTNPFSETQKQNRAVRSMILNGGVGSSFDVVIHTKDMQHLHLDQYVTILEHHHHHH”: “soluble”.
